We go through three substances from patent EP4361176A1.

For test [1], the target named is human FcγRIIIa V extracellular domain (human) (UniProt P08637). The test is described as follows: SPR; KD of G1d divided by KD of this antibody. (Surface plasmon resonance follows binding to a sensor surface in real time, without labels.)
The target in test [2] is human FcγRIIa R extracellular domain (human) (UniProt P12318). The experiment in a line: SPR; KD of G1d divided by KD of this antibody.
In test [3] the target is human FcγRIIIa V extracellular domain (human) (UniProt P08637). The experiment in a line: SPR; KD for FcγRIIb divided by KD for this FcγR.
Test [4] has as its target human FcγRIIa R extracellular domain (human) (UniProt P12318). The test is described as follows: SPR; KD for FcγRIIb divided by KD for this FcγR.
Test [5] deals with human FcγRIIIa V extracellular domain (human) (UniProt P08637). The experiment in a line: SPR (Biacore 8K+), captured antibody, 1:1 Langmuir model.
Test [6] addresses human FcγRIIa R extracellular domain (human) (UniProt P12318). The test is described as above.
Test [7] has as its target human FcγRIIb extracellular domain with C-terminal His-tag (human) (UniProt P31994). The test is described as follows: SPR (Biacore T200), FcγRIIb 1000 nM, amount bound per unit captured antibody.
The target is the same in test [8]. The test is described as follows: SPR; binding amount / that of MDX10D1H-G1m/MDX10D1L-k0MT.

Chain of H240-GASDALIE/L73-k0 (antibody) (heavy): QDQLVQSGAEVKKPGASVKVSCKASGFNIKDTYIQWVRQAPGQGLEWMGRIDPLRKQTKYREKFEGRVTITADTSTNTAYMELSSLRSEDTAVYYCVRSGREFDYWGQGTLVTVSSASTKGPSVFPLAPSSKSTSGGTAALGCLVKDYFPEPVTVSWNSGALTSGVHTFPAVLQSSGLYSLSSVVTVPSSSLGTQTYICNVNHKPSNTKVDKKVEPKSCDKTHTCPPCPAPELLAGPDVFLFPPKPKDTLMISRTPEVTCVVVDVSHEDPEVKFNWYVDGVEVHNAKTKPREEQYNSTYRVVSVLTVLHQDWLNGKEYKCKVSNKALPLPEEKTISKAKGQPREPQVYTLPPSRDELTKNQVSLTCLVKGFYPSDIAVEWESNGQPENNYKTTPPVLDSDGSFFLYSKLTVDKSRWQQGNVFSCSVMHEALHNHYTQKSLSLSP
Chain of H240-GASDALIE/L73-k0 (antibody) (light): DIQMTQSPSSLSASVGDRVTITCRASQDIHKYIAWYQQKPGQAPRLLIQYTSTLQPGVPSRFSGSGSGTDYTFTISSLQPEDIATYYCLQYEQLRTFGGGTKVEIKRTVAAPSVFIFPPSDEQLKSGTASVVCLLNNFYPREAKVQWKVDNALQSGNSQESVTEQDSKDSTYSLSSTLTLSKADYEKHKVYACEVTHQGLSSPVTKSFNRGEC
Chain of human FcγRIIb extracellular domain with C-terminal His-tag (human) (P31994 43-217): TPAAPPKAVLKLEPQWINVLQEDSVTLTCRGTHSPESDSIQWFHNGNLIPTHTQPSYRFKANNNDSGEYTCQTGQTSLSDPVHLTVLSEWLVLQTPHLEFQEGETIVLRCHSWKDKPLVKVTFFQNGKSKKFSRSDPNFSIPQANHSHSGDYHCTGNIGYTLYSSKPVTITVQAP

For H240-GASDALIE/L73-k0 (antibody), the Relative value to KD between G1d and hFcgRs in test [1] is 23.6; in test [2] it was 10.3. For the same substance, the A/I ratio (KD for FcγRIIb divided by KD for each FcyR) in test [3] stood at 176; in test [4], 16.5. Also, the Kd in test [5] was 15.2 nM; in test [6], 161 nM.
On to MDX10D1H-G1m/MDX10D1L-k0MT (antibody), for which the Binding amount in test [7] is 0.012.
Substance “MDX10D1H-GASDIE/MDX10D1L-k0MT (antibody)” yielded a Relative binding amount in test [8] of 5.8. Moreover, in test [7], the Binding amount was determined as 0.072.

By Kd is commonly meant the equilibrium constant for the complex coming apart.
